From publication doi:10.1101/2021.12.25.474155

Target: NCAP (SARS-CoV-2) (UniProt P0DTC9)
Assay: EMSA

| Sequence | Kd [nM] |
| --- | --- |
| GGCUGUGUGGCUGUCACUCGGCUGCAUGCUUAGUGCACUCACGCAGUAUAAUUAAUAACUAAUUACUGUCGUUGACAGGACACGAGUAACUCGUCUAUCUUCUGCAGGCUGCUUACGGUUUCGUCCGUGUUGCAGCCGAUCAUCAGCACAUCUAGGUUUCGUCCGGGUGUGACCGAAAGGUAAGAUGGAGAGCCUUGUCCCUGGUUUCAACGAGAAAACACACGUCCAACUCAGUUUGCCUGUUUUACAGGUUCGCGACGUGCUCGUACGUGGCUUUGGAGACUCCGUGGAGGAGGUCUUAUCAGAGGCACGUCAACAUCUUAAA [F323] | 29 |
| GGAUUAAAGGUUUAUACCUUCCCAGGUAACAAACCAACCAACUUUCGAUCUCUUGUAGAUCUGUUCUCUAAACGAACUUUAAAAUCUGUGUGGCUGUCACUCGGCUGCAUGCUUAGUGCACUCACGCAGUAUAAUUAAUAACUAAUUACUGUCGUUGACAGGACACGAGUAACUCGUCUAUCUUCUGCAGGCUGCUUACGGUUUCGUCCGUGUUGCAGCCGAUCAUCAGCACAUCUAGGUUUCGUCCGGGUGUGACCGAAAGGUAAGAUGGAGAGCCUUGUCCCUGGUUUCAACGAGAAAACACACGUCCAACUCAGUUUGCCUGUUUUACAGGUUCGCGACGUGCUCGUACGUGGCUUUGGAGACUCCGUGGAGGAGGUCUUAUCAGAGGCACGUCAACAUCUUAAA [F406] | 1.2 |
